# Results reported in paper PMC5120349, “Reconstitution of Targeted Deadenylation by the Ccr4-Not Complex and the YTH Domain Protein Mmi1”.
# T1: Mmi1 YTH domain (Schizosaccharomyces pombe, UniProt O74958 282-488)
# T1 sequence: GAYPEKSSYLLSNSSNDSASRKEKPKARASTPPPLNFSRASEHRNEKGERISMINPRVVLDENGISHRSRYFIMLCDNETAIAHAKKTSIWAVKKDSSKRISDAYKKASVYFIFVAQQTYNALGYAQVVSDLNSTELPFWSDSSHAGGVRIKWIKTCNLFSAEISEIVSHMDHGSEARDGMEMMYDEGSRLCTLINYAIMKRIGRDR
# Columns and labels:
# [1] = biological target: recombinant S. pombe Ccr4-Not complex (seven core subunits) (S. pombe) (UniProt O74856)
# Chain of recombinant S. pombe Ccr4-Not complex (seven core subunits) (S. pombe) (O74856 whole entry, looked up, the tested form may be a part, one chain of several): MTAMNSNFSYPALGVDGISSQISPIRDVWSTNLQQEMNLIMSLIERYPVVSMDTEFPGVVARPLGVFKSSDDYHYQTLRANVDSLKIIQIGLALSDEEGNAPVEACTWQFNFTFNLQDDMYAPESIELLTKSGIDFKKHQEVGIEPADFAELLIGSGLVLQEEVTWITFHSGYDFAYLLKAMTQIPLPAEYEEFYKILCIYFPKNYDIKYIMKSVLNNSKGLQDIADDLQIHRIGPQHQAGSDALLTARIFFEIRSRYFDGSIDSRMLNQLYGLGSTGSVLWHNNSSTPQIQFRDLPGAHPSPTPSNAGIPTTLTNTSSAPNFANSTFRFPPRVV
# Mmi1 YTH domain = biological target: T1, Mmi1 YTH domain; test: fluorescence polarization; 20 mM HEPES pH 7.5, 100 mM NaCl, 1 mM Mg(OAc)2, 0.1 mM TCEP, 10 nM labeled RNA, 10 min at room temperature; Hill-slope fit; details: protein: recombinant
Binder,Kd (Mmi1 YTH domain; label: 3' 6-FAM) [nM],also measured
"Mmi1 (recombinant, S. pombe) (natural protein) MSNTNFSTSRSSKSIPELPNLEALRSLWPPPSLNESGDTRSVWTTHTGEPVASSVLSTSGSNNFSSPLKRPAPESHDAPIGRRLMVDDPRLIKHGKYDFSRHCTDYGHSYEWPYFRSLRRESMLYHTSGSYPESQPPYSSYSTDAPHYYHAGSESSAYYDSRSRLHGIQPPPKRRTLSPPPRRLADPVVVGSSRYVEEEVYRRPPYTLASEVPSSASAYQAGYSSYPVRSSPQLSHEDTRHGIASSGSTRYPFVPANTRASHSPSLLEPYAHSLPSSVAPVGAYPEKSSYLLSNSSNDSASRKEKPKARASTPPPLNFSRASEHRNEKGERISMINPRVVLDENGISHRSRYFIMLCDNETAIAHAKKTSIWAVKKDSSKRISDAYKKASVYFIFVAQQTYNALGYAQVVSDLNSTELPFWSDSSHAGGVRIKWIKTCNLFSAEISEIVSHMDHGSEARDGMEMMYDEGSRLCTLINYAIMKRIGRDR",,"rate of deadenylation of the rec8^UUAAAC-A30 target RNA by Ccr4-Not with bound Mmi1, against Ccr4-Not without Mmi1 [1]: 5 fold"
CUCUUUAAACCUAAAAAGC (ssRNA) [rec8 UUAAAC],226 ± 15,
CUCUUUACACCUAAAAAGC (ssRNA) [rec8 UUACAC],460 ± 25,
CUCUUUCUCCCUACAAAGC (ssRNA) [rec8 UUCUCC],1370 ± 140,
CUCUUGAAACCUAAAAAGC (ssRNA) [rec8 UGAAAC],216 ± 14,
CUCUUUAACCCUAAAAAGC (ssRNA) [rec8 UUAACC],311 ± 13,
CUCUUUCAACCUAAAAAGC (ssRNA) [rec8 UUCAAC],433 ± 33,
CUCUUUAAAGCUAAAAAGC (ssRNA) [rec8 UUAAAG],231 ± 7,
CAGCUCCGCAUCCCUUUCCC (ssRNA) [20-mer unstructured RNA],,Kd (Mmi1 YTH domain): 13900 ± 1600 nM
